Laboratory results from patent US20190309093A1 (Y BIOLOGICS, published 2019).

Legend:
hCD3εγ chains = target: T1, hCD3εγ chains; experiment: ELISA on hCD3εγ chains, fit value of a flat curve, unit taken from the x axis Antibody [nM]
T1 construct: copies: 1 + 1
T1 epsilon: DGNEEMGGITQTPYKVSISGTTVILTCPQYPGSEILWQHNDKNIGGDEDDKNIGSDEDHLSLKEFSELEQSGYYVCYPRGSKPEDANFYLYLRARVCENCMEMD
T1 gamma: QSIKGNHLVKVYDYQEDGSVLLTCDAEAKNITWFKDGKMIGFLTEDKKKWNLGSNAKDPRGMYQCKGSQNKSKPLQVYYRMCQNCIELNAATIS

[1] = target: T2, CD3 on Jurkat luciferase reporter cells (UniProt P07766 23-207); experiment: flow cytometry of Jurkat_NFAT_Luc2P cells, FITC-A; fold over hIgG
T2 construct: whole, on cells; also called CD3 positive Jurkat cell line with NFAT luciferase reporter

Binder	Kd (hCD3εγ chains) [nM]	Fold [1]
ACE-05 (bispecific antibody, The Fab regions are bivalent for PD-L1 and the Fv is monovalent for CD3; also called ALiCE molecule ACE-05) heavy 1: not shown heavy 2: not shown light: QLVLTQPPSVSGAPGQRVTISCTGSSSNIGAGYDVHWYQQLPGAAPKLLIYGDINRPSGVPDRFSGSKSGISASLAITGLQAEDEADYYCQSYDSSLSGGVFGGGTKLTVLRTVAAPSVFIFPPSDEQLKSGTASVVCLLNNFYPREAKVQWKVDNALQSGNSQESVTEQDSKDSTYSLSSTLTLSKADYEKHKVYACEVTHQGLSSPVTKSFNRGEC	0.035	
UCHT1 (antibody, V domains shown, Bought antibody) VH: EVQLQQSGPELVKPGPSMKISCKASGYSFTGYTMNWVKQSHGKNLEWMGLINPYKGVSTYNQKFKDKATLTVDKSSSTAYMELLSLTSEDSAVYYCARSGYYGDSDWYFDVWGQGTTLTVFS VL: DIQMTQTTSSLSASLGDRVTISCRASQDIRNYLNWYQQKPDGTVKLLIYYTSRLHSGVPSKFSGSGSGTDYSLTISNLEQEDIATYFCQQGNTLPWTFAGGTKLEIKR		35
